The record followed here is PMC3190738.

This test has as its target His-tagged-YFP-PKI-NES. Briefly: fluorescence polarisation.

As for “CRM1 1–1062 + VLV > AAA (from UniProt Q6P5F9 1-1062) (domain or fragment)”, the Kd turned out to be 25 nM.

“CRM1 HEAT 9 loop variant (VLV > AAA) (from UniProt Q6P5F9 1-1071) (natural protein)” yielded a Kd of 200 nM.

Turning to “CRM1-1–1062 (from UniProt Q6P5F9 1-1062) (domain or fragment)”, the Kd was 1700 nM.

Substance “wild type mouse CRM1 (1–1071) (from UniProt Q6P5F9 1-1071) (natural protein)” registered a dissociation constant (Kd) of 15600 nM.
